According to patent publication EP4534554A1 (Corregene Biotechnology Co., Ltd., dated 2025):

T1: MAGE-A1 peptide on HLA-A*02:01 (human)
T1 peptide: KVLEYVIKV


What was measured:
[1] = target: MAGE-A1 target antigen peptide … presented by HLA-A*02:01 on cells (human); experiment: cell-based or functional assay; design: EC50 Enhancement Factor: unit not given beside the values
[2] = target: T1, MAGE-A1 peptide on HLA-A*02:01; experiment: JKR9 reporter + peptide-loaded T2, 16 h; full-length, on cells

| EC50 Enhancement Factor [1] | EC50 Value (M), JKR9 reporter activation by peptide-loaded T2 cells [1] [M] | EC50 of peptide [2] [nM] | Binder |
| --- | --- | --- | --- |
| 56 | 2.98e-07 | 298 | ht27M1243 (TCR, V domains shown) Valpha: GEDVEQSLFLSVREGDSSVINCTYTDSSLTYLYWYKQEPGAGLQLLTYIFSNMDMKQDQRLTVLLNKKDKHLSLRIADTQTGDSAIYFCAGSGGGTDKLIFGTGTRLQVFP Vbeta: GAVVSQHPSWVICKSGTSVKIECRSLDFQATTMFWYRQFPKQSLMLMATSNEGSKATYEQGVEKDKFLINHASLTLSTLTVTSAHPEDSSFYICSAREPGQGPYEQYFGPGTRLTVT |
| 28 | 5.88e-07 | 588 | ht27M1226 (TCR, V domains shown) Valpha: GEDVEQSLFLSVREGDSSVINCTYTDSLSTYLYWYKQEPGAGLQLLTYIFSNMDMKQDQRLTVLLNKKDKHLSLRIADTQTGDSAIYFCAGSGGGTDKLIFGTGTRLQVFP Vbeta: GAVVSQHPSWVICKSGTSVKIECRSLDFQATTMFWYRQFPKQSLMLMATSNEGSKATYEQGVEKDKFLINHASLTLSTLTVTSAHPEDSSFYICSAREPGQGPYEQYFGPGTRLTVT |
| 841 | 1.98e-08 | 19.8 | ht27M1013 (TCR, V domains shown) Valpha: GEDVEQSLFLSVREGDSSVINCTYTDSSSTYLYWYKQEPGAGLQLLTYIFSNMDMKQDQRLTVLLNKKDKHLSLRIADTQTGDSAIYFCAGSGGGTDKLIFGTGTRLQVFP Vbeta: GAVVSQHPSWVICKSGTSVKIECRSLDFQATTMFWYRQFPKQSLMLMATSNEGSKATYEQGVEKDKFLINHASLTLSTLTVTSAHPEDSSFYICSAREPGSGPFEQYFGPGTRLTVT |
| 751 | 2.21e-08 | 22.1 | ht27M1019 (TCR, V domains shown) Valpha: GEDVEQSLFLSVREGDSSVINCTYTDSSSTYLYWYKQEPGAGLQLLTYIFSNMDMKQDQRLTVLLNKKDKHLSLRIADTQTGDSAIYFCAGSGGGTDKLIFGTGTRLQVFP Vbeta: GAVVSQHPSWVICKSGTSVKIECRSLDFQATTMFWYRQFPKQSLMLMATSDYQTCVTYEQGVEKDKFLINHASLTLSTLTVTSAHPEDSSFYICSAREPGSGPFEQYFGPGTRLTVT |
| 151 | 1.1e-07 | 110 | ht27M1240 (TCR, V domains shown) Valpha: GEDVEQSLFLSVREGDSSVINCTYTDSSMTYLYWYKQEPGAGLQLLTYIFSNMDMKQDQRLTVLLNKKDKHLSLRIADTQTGDSAIYFCAGSGGGTDKLIFGTGTRLQVFP Vbeta: GAVVSQHPSWVICKSGTSVKIECRSLDFQATTMFWYRQFPKQSLMLMATSNEGSKATYEQGVEKDKFLINHASLTLSTLTVTSAHPEDSSFYICSAREPGQGPYEQYFGPGTRLTVT |
| 30 | 5.54e-07 | 554 | ht27M1245 (TCR, V domains shown) Valpha: GEDVEQSLFLSVREGDSSVINCTYTDSSQTYLYWYKQEPGAGLQLLTYIFSNMDMKQDQRLTVLLNKKDKHLSLRIADTQTGDSAIYFCAGSGGGTDKLIFGTGTRLQVFP Vbeta: GAVVSQHPSWVICKSGTSVKIECRSLDFQATTMFWYRQFPKQSLMLMATSNEGSKATYEQGVEKDKFLINHASLTLSTLTVTSAHPEDSSFYICSAREPGQGPYEQYFGPGTRLTVT |
| 39 | 4.25e-07 | 425 | ht27M1170 (TCR, V domains shown) Valpha: GEDVEQSLFLSVREGDSSVINCTYTDSSSTYLYWYKQEPGAGLQLLTYIFSNMDMKQDQRLTVLLNKKDKHLSLRIADTQTGDSAIYFCAGSGGGTDKLIFGTGTRLQVFP Vbeta: GAVVSQHPSWVICKSGTSVKIECRSLDFQATTMFWYRQFPKQSLMLMATSNEGSKATYEQGVEKDKFLINHASLTLSTLTVTSAHPEDSSFYICHAREPGQGPYEQYFGPGTRLTVT |
| 422 | 3.95e-08 | 39.5 | ht27M1128 (TCR, V domains shown) Valpha: GEDVEQSLFLSVREGDSSVINCTYTDSSSTYLYWYKQEPGAGLQLLTYIFSNMDMKQDQRLTVLLNKKDKHLSLRIADTQTGDSAIYFCAGSGGGTDKLIFGTGTRLQVFP Vbeta: GAVVSQHPSWVICKSGTSVKIECRSLDFQATTMFWYRQFPKQSLMLMATSNEGSKATYEQGVEKDKFLINHASLTLSTLTVTSAHPEDSSFYICLAREPGQGPYEQYFGPGTRLTVT |
| 262 | 6.36e-08 | 63.6 | ht27M1018 (TCR, V domains shown) Valpha: GEDVEQSLFLSVREGDSSVINCTYTDSSSTYLYWYKQEPGAGLQLLTYIFSNMDMKQDQRLTVLLNKKDKHLSLRIADTQTGDSAIYFCAGSGGGTDKLIFGTGTRLQVFP Vbeta: GAVVSQHPSWVICKSGTSVKIECRSLDFQATTMFWYRQFPKQSLMLMATSDYQTCVTYEQGVEKDKFLINHASLTLSTLTVTSAHPEDSSFYICSAREPGGGPFEQYFGPGTRLTVT |
| 47 | 3.55e-07 | 355 | ht27M1166 (TCR, V domains shown) Valpha: GEDVEQSLFLSVREGDSSVINCTYTDSSSTYLYWYKQEPGAGLQLLTYIFSNMDMKQDQRLTVLLNKKDKHLSLRIADTQTGDSAIYFCAGSGGGTDKLIFGTGTRLQVFP Vbeta: GAVVSQHPSWVICKSGTSVKIECRSLDFQATTMFWYRQFPKQSLMLMATSNEGSKATYEQGVEKDKFLINHASLTLSTLTVTSAHPEDSSFYICQAREPGQGPYEQYFGPGTRLTVT |

The next lines start with the binder.

| Binder | EC50 Enhancement Factor [1] | EC50 Value (M), JKR9 reporter activation by peptide-loaded T2 cells [1] [M] | EC50 of peptide [2] [nM] |
| --- | --- | --- | --- |
| ht27M1004 (TCR, V domains shown) Valpha: GEDVEQSLFLSVREGDSSVINCTYTDSSSTYLYWYKQEPGAGLQLLTYIFSNMDMKQDQRLTVLLNKKDKHLSLRIADTQTGDSAIYFCAGSGGGTDKLIFGTGTRLQVFP Vbeta: GAVVSQHPSWVICKSGTSVKIECRSLDFQATTMFWYRQFPKQSLMLMATSNEGSKATYEQGVEKDKFLINHASLTLSTLTVTSAHPEDSSFYICSAREPGQGPFEQYFGPGTRLTVT | 944 | 1.76e-08 | 17.6 |
| ht27M1011 (TCR, V domains shown) Valpha: GEDVEQSLFLSVREGDSSVINCTYTDSSSTYLYWYKQEPGAGLQLLTYIFSNMDMKQDQRLTVLLNKKDKHLSLRIADTQTGDSAIYFCAGSGGGTDKLIFGTGTRLQVFP Vbeta: GAVVSQHPSWVICKSGTSVKIECRSLDFQATTMFWYRQFPKQSLMLMATSDYQTCVTYEQGVEKDKFLINHASLTLSTLTVTSAHPEDSSFYICSAREPGQGPWEQYFGPGTRLTVT | 2020 | 8.24e-09 | 8.24 |
| ht27M1009 (TCR, V domains shown) Valpha: GEDVEQSLFLSVREGDSSVINCTYTDSSSTYLYWYKQEPGAGLQLLTYIFSNMDMKQDQRLTVLLNKKDKHLSLRIADTQTGDSAIYFCAGSGGGTDKLIFGTGTRLQVFP Vbeta: GAVVSQHPSWVICKSGTSVKIECRSLDFQATTMFWYRQFPKQSLMLMATSDYQTCVTYEQGVEKDKFLINHASLTLSTLTVTSAHPEDSSFYICSAREPGQGPFEQYFGPGTRLTVT | 2720 | 6.12e-09 | 6.12 |
| ht27M1005 (TCR, V domains shown) Valpha: GEDVEQSLFLSVREGDSSVINCTYTDSSSTYLYWYKQEPGAGLQLLTYIFSNMDMKQDQRLTVLLNKKDKHLSLRIADTQTGDSAIYFCAGSGGGTDKLIFGTGTRLQVFP Vbeta: GAVVSQHPSWVICKSGTSVKIECRSLDFQATTMFWYRQFPKQSLMLMATSNEGSKATYEQGVEKDKFLINHASLTLSTLTVTSAHPEDSSFYICSAREPGQGPLEQYFGPGTRLTVT | 11 | 1.55e-06 | 1550 |
| ht27M1012 (TCR, V domains shown) Valpha: GEDVEQSLFLSVREGDSSVINCTYTDSSSTYLYWYKQEPGAGLQLLTYIFSNMDMKQDQRLTVLLNKKDKHLSLRIADTQTGDSAIYFCAGSGGGTDKLIFGTGTRLQVFP Vbeta: GAVVSQHPSWVICKSGTSVKIECRSLDFQATTMFWYRQFPKQSLMLMATSNEGSKATYEQGVEKDKFLINHASLTLSTLTVTSAHPEDSSFYICSAREPGGGPFEQYFGPGTRLTVT | 637 | 2.61e-08 | 26.1 |
| ht27M1006 (TCR, V domains shown) Valpha: GEDVEQSLFLSVREGDSSVINCTYTDSSSTYLYWYKQEPGAGLQLLTYIFSNMDMKQDQRLTVLLNKKDKHLSLRIADTQTGDSAIYFCAGSGGGTDKLIFGTGTRLQVFP Vbeta: GAVVSQHPSWVICKSGTSVKIECRSLDFQATTMFWYRQFPKQSLMLMATSNEGSKATYEQGVEKDKFLINHASLTLSTLTVTSAHPEDSSFYICSAREPGQGPWEQYFGPGTRLTVT | 445 | 3.74e-08 | 37.4 |
| ht27M1001 (TCR, V domains shown) Valpha: GEDVEQSLFLSVREGDSSVINCTYTDSSSTYLYWYKQEPGAGLQLLTYIFSNMDMKQDQRLTVLLNKKDKHLSLRIADTQTGDSAIYFCAGSGGGTDKLIFGTGTRLQVFP Vbeta: GAVVSQHPSWVICKSGTSVKIECRSLDFQATTMFWYRQFPKQSLMLMATSDYQTCVTYEQGVEKDKFLINHASLTLSTLTVTSAHPEDSSFYICSAREPGQGPYEQYFGPGTRLTVT | 388 | 4.28e-08 | 42.8 |
| ht27M1010 (TCR, V domains shown) Valpha: GEDVEQSLFLSVREGDSSVINCTYTDSSSTYLYWYKQEPGAGLQLLTYIFSNMDMKQDQRLTVLLNKKDKHLSLRIADTQTGDSAIYFCAGSGGGTDKLIFGTGTRLQVFP Vbeta: GAVVSQHPSWVICKSGTSVKIECRSLDFQATTMFWYRQFPKQSLMLMATSDYQTCVTYEQGVEKDKFLINHASLTLSTLTVTSAHPEDSSFYICSAREPGQGPLEQYFGPGTRLTVT | 820 | 2.03e-08 | 20.3 |
